The results in this text go back to the Human Domainome abundance scans (Beltran et al. 2025).

First the molecules themselves.
B1: Tyrosine-protein kinase BTK, residues 215 to 273; numbered along this chain, Q06187 (parent)
chain: ELKKVVALYDYMPMNANDLQLRKGDEYFILEESNLPWWRARDKNGQEGYIPSNYVTEAE
B2: Zinc finger homeobox protein 4, residues 2183 to 2238; numbered along this chain, Q86UP3 (parent)
chain: SSRTRFTDYQLRVLQDFFDTNAYPKDDEIEQLSTVLNLPTRVIVVWFQNARQKARK

± gives the uncertainty stated by the source.

Variants of B1 are the subject of one series. In words: abundance fitness (aPCA) (normalised: wild type 0, dead -1); higher = more abundant; growth selection in yeast, the domain comes from the species named. The conditions noted are these: Homo sapiens.
Consider E1P, for which the abundance fitness is -0.305 ± 0.16.
The same measure, in the same setting: under E32R stands -0.038 ± 0.05; under E32W, -0.09 ± 0.07; under E32A, 0.016 ± 0.094.
With E32M, the abundance fitness was -0.082 ± 0.064.
The same measure, in the same setting: the value for E32S was -0.018 ± 0.046; that for E32F was -0.173 ± 0.076; that for E32K was -0.133 ± 0.08.
Same read-out and setting: the value for E26A was -0.075 ± 0.046.
For the variant E26T, the abundance fitness is 0.011 ± 0.052.
Same read-out and setting: under E26W stands -0.037 ± 0.047; under V5H, -0.335 ± 0.071; under V5T, -0.323 ± 0.048.
On the same count and under the same terms, the value for Y27T was -0.698 ± 0.057.
On the same count and under the same terms, the value for Y27C was -0.299 ± 0.065.
Y27L: the abundance fitness is -0.053 ± 0.03.
On the same count and under the same terms, the value for Y27A was -0.339 ± 0.049; that for Y27R was -0.772 ± 0.05.
Same read-out and setting: under Y27I stands -0.054 ± 0.073; under A7T, -0.801 ± 0.056.
On the same count and under the same terms, the value for A7V was -0.681 ± 0.04.
A7F: the abundance fitness was -0.599 ± 0.1.
Still for that read-out and setting: the value for A7P was -0.654 ± 0.053.
On to A7M, for which the abundance fitness is -0.837 ± 0.059.
The same measure, in the same setting: under A7C stands -0.203 ± 0.055; under M12N, -0.007 ± 0.067.
The same measure, in the same setting: under M12W stands -0.07 ± 0.039.
The same measure, in the same setting: under L21E stands -0.793 ± 0.085; under L21Q, -0.754 ± 0.09; under L21F, -1.01 ± 0.12.
Regarding L21M, the abundance fitness is -0.079 ± 0.05.
With L21R, the abundance fitness is -0.998 ± 0.069.
Turning to P36S, the abundance fitness was -0.013 ± 0.038.
Still for that read-out and setting: the value for P36Q was 0.002 ± 0.054; that for P36W was -0.17 ± 0.051; that for N34Q was 0.118 ± 0.058.
On the same count and under the same terms, the value for N34P was 0.031 ± 0.053.
Take N34V: the abundance fitness turned out to be 0.065 ± 0.033.
For N34E, the abundance fitness was determined as 0.037 ± 0.043.
Same read-out and setting: under N34R stands -0.002 ± 0.043; under S52T, -0.058 ± 0.051.
Take S52I: the abundance fitness was -0.053 ± 0.066.
Still for that read-out and setting: the value for S52R was -0.008 ± 0.038; that for I50Q was -1.2 ± 0.18; that for I50G was -0.876 ± 0.07.
Still for that read-out and setting: under I50K stands -1.02 ± 0.15; under I50F, -0.121 ± 0.082.
As for I50S, the abundance fitness was -1.05 ± 0.12.
The same measure, in the same setting: under R39V stands -0.065 ± 0.033.
Same read-out and setting: under R39T stands -0.111 ± 0.06.
The same measure, in the same setting: the value for R39Y was -0.171 ± 0.07; that for R39E was -0.199 ± 0.046.
Consider R39F, for which the abundance fitness was -0.069 ± 0.057.
Still for that read-out and setting: the value for N53I was -0.238 ± 0.091; that for N53M was -0.079 ± 0.048.
The same measure, in the same setting: under N53S stands -0.006 ± 0.04; under R41D, -1.08 ± 0.2; under R41G, -0.317 ± 0.042.
Same read-out and setting: the value for R41E was -0.305 ± 0.069; that for R41C was -0.027 ± 0.078.
With R41M, the abundance fitness is -0.003 ± 0.058.
On to Y9C, for which the abundance fitness is 0.006 ± 0.05.
Same read-out and setting: the value for Y9A was 0.062 ± 0.042; that for Y9W was -0.053 ± 0.044; that for Y9N was 0.07 ± 0.057.
Same read-out and setting: the value for G48V was -0.92 ± 0.063; that for G48D was -0.791 ± 0.11.
Same read-out and setting: the value for G48R was -0.827 ± 0.052; that for G48K was -0.8 ± 0.069.
With G48Q, the abundance fitness was -0.845 ± 0.075.
On the same count and under the same terms, under G48S stands -0.862 ± 0.057.
Turning to G48W, the abundance fitness is -1.02 ± 0.087.
Regarding L8A, the abundance fitness was -0.124 ± 0.031.
Same read-out and setting: the value for L8V was -0.055 ± 0.029.
Same read-out and setting: the value for L8F was -0.222 ± 0.056; that for L8E was -0.094 ± 0.035.
The same measure, in the same setting: under L8Q stands -0.093 ± 0.047.
As to F28V, the abundance fitness was -0.009 ± 0.035.
Still for that read-out and setting: under F28A stands -0.055 ± 0.041; under F28S, -0.019 ± 0.039; under F28D, -0.018 ± 0.064.
Same read-out and setting: under F28K stands -0.141 ± 0.06.
The same measure, in the same setting: under F28E stands 0.002 ± 0.055; under F28G, -0.049 ± 0.041; under E31H, -0.054 ± 0.062.
On to E31S, for which the abundance fitness stood at 0.05 ± 0.031.
Still for that read-out and setting: under E31V stands -0.119 ± 0.04; under R22F, -0.036 ± 0.062.
Same read-out and setting: the value for R22E was -0.041 ± 0.054; that for R22I was -0.026 ± 0.067.
Still for that read-out and setting: under R22P stands -0.768 ± 0.086.
For V55K, the abundance fitness is -0.833 ± 0.12.
Still for that read-out and setting: under V55G stands -0.827 ± 0.056; under V55D, -0.891 ± 0.11.
In the case of V55R, the abundance fitness was -0.905 ± 0.063.
Same read-out and setting: under V55M stands -0.284 ± 0.079.
On the same count and under the same terms, the value for V55W was -0.784 ± 0.069; that for M14Q was 0.038 ± 0.064.
On the same count and under the same terms, under M14N stands 0.059 ± 0.062.
Turning to M14K, the abundance fitness is -0.007 ± 0.059.
The same measure, in the same setting: under M14T stands -0.028 ± 0.04.
On to M14L, for which the abundance fitness is -0.018 ± 0.03.
Still for that read-out and setting: under M14C stands -0.08 ± 0.059; under W38T, -0.009 ± 0.037; under W38H, -0.029 ± 0.071.
Turning to W38P, the abundance fitness was -0.038 ± 0.043.
The same measure, in the same setting: the value for P13K was -0.119 ± 0.066; that for P13C was -0.235 ± 0.056.
In the case of P13N, the abundance fitness is -0.275 ± 0.1.
Still for that read-out and setting: under P13E stands -0.343 ± 0.06.
Consider P13H, for which the abundance fitness was -0.51 ± 0.11.
The same measure, in the same setting: the value for Y11D was -0.72 ± 0.14; that for Y11T was -0.182 ± 0.058.
In the case of Y11I, the abundance fitness was -0.245 ± 0.05.
On the same count and under the same terms, the value for Y11R was 0.032 ± 0.032.
The same measure, in the same setting: under Y11E stands -0.562 ± 0.1; under Y11V, -0.298 ± 0.042.
On the same count and under the same terms, the value for L2I was -0.089 ± 0.071; that for L2G was -0.018 ± 0.039.
Turning to L2A, the abundance fitness is -0.093 ± 0.07.
The same measure, in the same setting: under L2T stands -0.161 ± 0.074; under L2W, -0.088 ± 0.042; under L2R, -0.075 ± 0.041.
Regarding V6F, the abundance fitness was -0.073 ± 0.031.
Same read-out and setting: under V6E stands -0.135 ± 0.041; under V6Q, -0.025 ± 0.038.
On the same count and under the same terms, under K3M stands 0 ± 0.05.
For K3L, the abundance fitness is -0.102 ± 0.034.
Same read-out and setting: the value for K3H was -0.224 ± 0.078; that for K3R was -0.065 ± 0.043; that for K3E was -0.309 ± 0.07.
Same read-out and setting: under K3I stands -0.257 ± 0.054; under K3Y, -0.205 ± 0.058; under K23H, -0.019 ± 0.087.
On to K23E, for which the abundance fitness was -0.058 ± 0.046.
On the same count and under the same terms, the value for K23G was -0.143 ± 0.034; that for K23C was -0.037 ± 0.061; that for K23T was -0.112 ± 0.061.
On the same count and under the same terms, under K23M stands -0.169 ± 0.046.

In the next series the parent is B2. The description is as above. The conditions noted are these: Homo sapiens.
With SCRTRFTDYQLRVLQDFFDTNAYPKDDEIEQLSTVLNLPTRVIVVWFQNARQKARK, the abundance fitness worked out at 0.197 ± 0.096.
For the variant SDRTRFTDYQLRVLQDFFDTNAYPKDDEIEQLSTVLNLPTRVIVVWFQNARQKARK, the abundance fitness was determined as 0.254 ± 0.11.
On the same count and under the same terms, the value for SARTRFTDYQLRVLQDFFDTNAYPKDDEIEQLSTVLNLPTRVIVVWFQNARQKARK was -0.407 ± 0.094.
Turning to TSRTRFTDYQLRVLQDFFDTNAYPKDDEIEQLSTVLNLPTRVIVVWFQNARQKARK, the abundance fitness is -0.009 ± 0.16.
On the same count and under the same terms, under PSRTRFTDYQLRVLQDFFDTNAYPKDDEIEQLSTVLNLPTRVIVVWFQNARQKARK stands -0.575 ± 0.29.
Same read-out and setting: the value for ASRTRFTDYQLRVLQDFFDTNAYPKDDEIEQLSTVLNLPTRVIVVWFQNARQKARK was 0.062 ± 0.2; that for YSRTRFTDYQLRVLQDFFDTNAYPKDDEIEQLSTVLNLPTRVIVVWFQNARQKARK was -0.241 ± 0.17.
For the variant ISRTRFTDYQLRVLQDFFDTNAYPKDDEIEQLSTVLNLPTRVIVVWFQNARQKARK, the abundance fitness was -0.026 ± 0.34.
As for WSRTRFTDYQLRVLQDFFDTNAYPKDDEIEQLSTVLNLPTRVIVVWFQNARQKARK, the abundance fitness is -1.16 ± 0.35.
On the same count and under the same terms, under MSRTRFTDYQLRVLQDFFDTNAYPKDDEIEQLSTVLNLPTRVIVVWFQNARQKARK stands 0.045 ± 0.28; under FSRTRFTDYQLRVLQDFFDTNAYPKDDEIEQLSTVLNLPTRVIVVWFQNARQKARK, 0.106 ± 0.2.
For the variant CSRTRFTDYQLRVLQDFFDTNAYPKDDEIEQLSTVLNLPTRVIVVWFQNARQKARK, the abundance fitness amounted to 0.092 ± 0.18.
Still for that read-out and setting: the value for GSRTRFTDYQLRVLQDFFDTNAYPKDDEIEQLSTVLNLPTRVIVVWFQNARQKARK was 0.276 ± 0.15.
